Measured values: the supplement of paper PMC10567573

B1: TRIM35 (parent)
chain: DKELLCCSCQADPRHQGHRVQPVK
B2: TRIB1 (parent)
chain: SYVRSRKRLREEEAARLFKQIVSA

Variants of: B1
Test: protein stability index of a GFP-peptide fusion (GPS, HEK-293T) (PSI 1-6); higher = more stable
Settings: c terminus: a fixed tail appended
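Note: lentivirally expressed fusions sorted by FACS into six bins by GFP to DsRed ratio, PSI derived from sequencing read proportions per bin multiplied by bin number.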

Protein stability index of substitutions, site by site:
D1: F 2.79 | V 3.06 | A 3.15 | K 3.46 | N 3.77 | H 3.02 | W 1.87 | C 3.49 | M 3.67 | P 3.49 | S 3.31 | Q 3.59 | E 4.13 | Y 2.11 | T 3.71 | I 2.38 | R 2.71
C7: Q 4.5 | G 4.23 | F 3.38 | I 3.29 | R 3.76 | A 4.12 | N 4.1 | Y 3.83 | L 3.66 | V 3.87 | D 4.67 | H 4.03 | T 4.18 | K 3.88 | S 4.06 | M 3.62 | E 4.44 | P 4.03 | W 3.9
L5: C 3.88 | D 4.43 | T 4.29 | K 3.58 | M 3.11 | E 4.08 | F 3.55 | S 4.44 | N 2.66 | Y 2.93 | Q 4.36 | W 3.18 | A 3.65 | H 3.91 | R 3.32 | P 4.36 | I 3.76
S8: Q 3.05 | N 3.62 | G 4.14 | K 3.78 | F 2.24 | E 4.61 | W 2.5 | H 2.92 | P 3.59 | V 3.75 | I 2.64 | D 4.28 | C 4.16 | M 2.87 | L 2.98 | Y 2.97 | A 3.31
L4: E 3.41 | P 3.85 | D 4.47 | Q 4.36 | A 3.86 | M 3.9 | I 2.52 | Y 3.8 | T 4.13 | R 3.7 | V 4.33 | W 2.68 | S 3.8 | K 4.07 | G 4.47 | N 2.58 | F 3.31 | H 4.08 | C 4.27
E3: C 2.26 | R 2.81 | L 2.11 | A 2.92 | G 2.43 | Y 2.46 | Q 3.73 | M 2.12 | D 3.4 | N 3.68 | P 3.09 | K 3.52 | T 3.72 | F 2.34 | V 2.45 | H 2.47 | W 1.93 | S 3.94 | I 2.51
K2: W 4.1 | P 3.19 | C 4.2 | N 3.95 | Y 3.2 | T 3.79 | F 2.63 | I 2.84 | E 4.01 | G 3.05 | R 3.12 | D 3.46 | Q 3.78 | A 3.54 | V 3.53 | S 3.87 | L 3.18 | H 3.51 | M 3.65
C9: A 3.85 | Q 4.65 | K 4.64 | N 4.6 | E 4.87 | P 4.89 | L 3.09 | I 4.14 | H 4.1 | M 4.03 | R 4.42 | S 4.47 | D 5.29 | F 3.38 | G 4.1
C6: H 4.45 | V 2.25 | K 4.36 | W 2.29 | S 3.73 | A 3.61 | D 5.31 | N 3.87 | L 3.41 | F 2.99 | M 3.74 | I 2.61 | T 3.76 | Y 3 | R 3.54 | E 4.3 | P 3.64

Variants of: B2
Test: as above
Settings: c terminus: a fixed tail appended

Protein stability index of substitutions, site by site:
F18: C 3.31 | I 2.06 | R 3.74 | A 3.44 | E 3.02 | M 3.34 | Y 2.08 | D 3.83 | N 3.1 | T 3.84 | S 3.42 | H 4.19 | W 2.56 | V 2.86 | G 3.92 | L 1.52 | P 3.99 | Q 4.07
Q20: Y 1.13 | V 1.04 | H 1.54 | L 1.32 | S 2.27 | G 2.52 | N 2.64 | T 2.37 | I 1.43 | M 2.17 | W 1.46 | F 1.61 | D 2.08 | K 2.15 | R 1.95 | E 2.4 | A 1.8 | C 1.43 | P 3.03
A24: G 3.39 | P 2.63 | Y 2.32 | I 2.88 | K 2.97 | W 2 | T 2.47 | M 1.14 | E 1.99 | N 3.37 | D 2.76 | C 2.99 | H 2.58 | V 2.61 | S 2.08 | L 1.65 | F 2.26 | Q 2.18 | R 2.01
S23: Q 1.94 | W 1.07 | Y 1.73 | P 2.99 | L 2.18 | M 2.87 | F 2.07 | I 1.48 | R 1.99 | G 1.9 | D 3.05 | C 1.63 | E 2.56 | H 1.8 | T 1.75 | N 2.32 | A 2.01 | K 2.3
I21: H 2.4 | P 3.76 | F 2.2 | T 3.48 | L 1.39 | M 2.47 | K 3.27 | N 4.01 | R 3.8 | W 3.98 | Y 2.06 | E 3.23 | V 2.34 | Q 2.06 | S 3.66 | D 4.08
A15: V 1.84 | I 1.4 | E 2.56 | H 2.08 | T 2.08 | W 1.74 | Y 1.71 | M 2.68 | R 2.62 | Q 2.15 | K 1.96 | S 2.36 | L 2.05 | N 2.48 | P 3.43 | G 2.56 | F 1.59
V22: D 3.22 | Q 3.34 | T 2.94 | L 2.54 | C 2.13 | P 3.72 | R 3.3 | W 3.04 | N 2.86 | S 2.62 | H 2.23 | G 3.11 | I 2.94 | Y 1.49 | F 1.83 | M 2.45 | A 2.58
K19: I 2.91 | L 1.33 | P 2.81 | R 1.85 | N 1.7 | S 2.31 | Y 2.02 | T 2.04 | M 2.43 | Q 2.21 | E 2.06 | H 1.69 | D 2.25 | C 2.34 | F 2.71
L17: V 2.98 | M 2.03 | F 1.6 | S 2.62 | W 2.24 | Y 2.61 | N 3.21 | Q 2.1 | H 2.48 | R 2.1 | K 2.61 | C 2.52 | E 3.46 | A 2.49 | P 3.97 | T 2.87 | D 3.46 | G 3.72
R16: C 2.01 | K 2.31 | V 2.53 | H 2.2 | F 2.66 | E 2.87 | L 1.93 | Q 2.63 | P 3.39 | Y 2.32 | I 1.37 | A 1.9 | M 2.52 | S 1.72 | D 2.17 | T 2.57 | G 2.41 | N 2.58
